Results on eight proteins are retold here after patent publication US20210238260.

Sequences and labels used below:
B1: FIXa-K247N/N249S/R318Y/R338E/T343R/E410N (protein)
chain 1: YNSGKLEEFVQGNLERECMEEKCSFEEAREVFENTERTTEFWKQYVDGDQCESNPCLNGGSCKDDINSYECWCPFGFEGKNCELDVTCNIKNGRCEQFCKNSADNKVVCSCTEGYRLAENQKSCEPAVPFPCGRVSVSQTSKLTR
chain 2: VVGGEDAKPGQFPWQVVLNGKVDAFCGGSIVNEKWIVTAAHCVETGVKITVVAGEHNIEETEHTEQNRSVIRIIPHHNYNAAINKYNHDIALLELDEPLVLNSYVTPICIADKEYTNIFLKFGSGYVSGWGRVFHKGYSALVLQYLRVPLVDRATCLESTKFRIYNNMFCAGFHEGGRDSCQGDSGGPHVTEVEGTSFLTGIISWGEECAMKGKYGIYTKVSRYVNWIKNKTKLT
B2: FIXa-K247N/N249S/R318Y/T343R/E410N (protein)
chain 1: YNSGKLEEFVQGNLERECMEEKCSFEEAREVFENTERTTEFWKQYVDGDQCESNPCLNGGSCKDDINSYECWCPFGFEGKNCELDVTCNIKNGRCEQFCKNSADNKVVCSCTEGYRLAENQKSCEPAVPFPCGRVSVSQTSKLTR
chain 2: VVGGEDAKPGQFPWQVVLNGKVDAFCGGSIVNEKWIVTAAHCVETGVKITVVAGEHNIEETEHTEQNRSVIRIIPHHNYNAAINKYNHDIALLELDEPLVLNSYVTPICIADKEYTNIFLKFGSGYVSGWGRVFHKGYSALVLQYLRVPLVDRATCLRSTKFRIYNNMFCAGFHEGGRDSCQGDSGGPHVTEVEGTSFLTGIISWGEECAMKGKYGIYTKVSRYVNWIKNKTKLT
B3: FIXa-Y155F/K247N/N249S/R318Y/T343R/E410N (protein)
chain 1: YNSGKLEEFVQGNLERECMEEKCSFEEAREVFENTERTTEFWKQYVDGDQCESNPCLNGGSCKDDINSYECWCPFGFEGKNCELDVTCNIKNGRCEQFCKNSADNKVVCSCTEGYRLAENQKSCEPAVPFPCGRVSVSQTSKLTR
chain 2: VVGGEDAKPGQFPWQVVLNGKVDAFCGGSIVNEKWIVTAAHCVETGVKITVVAGEHNIEETEHTEQNRSVIRIIPHHNYNAAINKYNHDIALLELDEPLVLNSYVTPICIADKEYTNIFLKFGSGYVSGWGRVFHKGYSALVLQYLRVPLVDRATCLRSTKFRIYNNMFCAGFHEGGRDSCQGDSGGPHVTEVEGTSFLTGIISWGEECAMKGKYGIYTKVSRYVNWIKNKTKLT
B4: FIXa-Y155F/K247N/N249S/R338E/E410N (protein)
chain 1: YNSGKLEEFVQGNLERECMEEKCSFEEAREVFENTERTTEFWKQYVDGDQCESNPCLNGGSCKDDINSYECWCPFGFEGKNCELDVTCNIKNGRCEQFCKNSADNKVVCSCTEGYRLAENQKSCEPAVPFPCGRVSVSQTSKLTR
chain 2: VVGGEDAKPGQFPWQVVLNGKVDAFCGGSIVNEKWIVTAAHCVETGVKITVVAGEHNIEETEHTEQNRSVIRIIPHHNYNAAINKYNHDIALLELDEPLVLNSYVTPICIADKEYTNIFLKFGSGYVSGWGRVFHKGRSALVLQYLRVPLVDRATCLESTKFTIYNNMFCAGFHEGGRDSCQGDSGGPHVTEVEGTSFLTGIISWGEECAMKGKYGIYTKVSRYVNWIKNKTKLT
B5: FIXa-Y155F/K247N/N249S/R318Y/T343R/R403E/E410N (protein)
chain 1: YNSGKLEEFVQGNLERECMEEKCSFEEAREVFENTERTTEFWKQYVDGDQCESNPCLNGGSCKDDINSYECWCPFGFEGKNCELDVTCNIKNGRCEQFCKNSADNKVVCSCTEGYRLAENQKSCEPAVPFPCGRVSVSQTSKLTR
chain 2: VVGGEDAKPGQFPWQVVLNGKVDAFCGGSIVNEKWIVTAAHCVETGVKITVVAGEHNIEETEHTEQNRSVIRIIPHHNYNAAINKYNHDIALLELDEPLVLNSYVTPICIADKEYTNIFLKFGSGYVSGWGRVFHKGYSALVLQYLRVPLVDRATCLRSTKFRIYNNMFCAGFHEGGRDSCQGDSGGPHVTEVEGTSFLTGIISWGEECAMKGKYGIYTKVSEYVNWIKNKTKLT
B6: FIXa-K247N/N249S/R318Y/T343R/R403E (protein)
chain 1: YNSGKLEEFVQGNLERECMEEKCSFEEAREVFENTERTTEFWKQYVDGDQCESNPCLNGGSCKDDINSYECWCPFGFEGKNCELDVTCNIKNGRCEQFCKNSADNKVVCSCTEGYRLAENQKSCEPAVPFPCGRVSVSQTSKLTR
chain 2: VVGGEDAKPGQFPWQVVLNGKVDAFCGGSIVNEKWIVTAAHCVETGVKITVVAGEHNIEETEHTEQNRSVIRIIPHHNYNAAINKYNHDIALLELDEPLVLNSYVTPICIADKEYTNIFLKFGSGYVSGWGRVFHKGYSALVLQYLRVPLVDRATCLRSTKFRIYNNMFCAGFHEGGRDSCQGDSGGPHVTEVEGTSFLTGIISWGEECAMKGKYGIYTKVSEYVNWIKEKTKLT
B7: FIXa-K247N/N249S/R318Y/T343R/R403E/E410N (protein)
chain 1: YNSGKLEEFVQGNLERECMEEKCSFEEAREVFENTERTTEFWKQYVDGDQCESNPCLNGGSCKDDINSYECWCPFGFEGKNCELDVTCNIKNGRCEQFCKNSADNKVVCSCTEGYRLAENQKSCEPAVPFPCGRVSVSQTSKLTR
chain 2: VVGGEDAKPGQFPWQVVLNGKVDAFCGGSIVNEKWIVTAAHCVETGVKITVVAGEHNIEETEHTEQNRSVIRIIPHHNYNAAINKYNHDIALLELDEPLVLNSYVTPICIADKEYTNIFLKFGSGYVSGWGRVFHKGYSALVLQYLRVPLVDRATCLRSTKFRIYNNMFCAGFHEGGRDSCQGDSGGPHVTEVEGTSFLTGIISWGEECAMKGKYGIYTKVSEYVNWIKNKTKLT
B8: FIXa-Y155F/K247N/N249S/R318Y/T343R/R403E (protein)
chain 1: YNSGKLEEFVQGNLERECMEEKCSFEEAREVFENTERTTEFWKQYVDGDQCESNPCLNGGSCKDDINSYECWCPFGFEGKNCELDVTCNIKNGRCEQFCKNSADNKVVCSCTEGYRLAENQKSCEPAVPFPCGRVSVSQTSKLTR
chain 2: VVGGEDAKPGQFPWQVVLNGKVDAFCGGSIVNEKWIVTAAHCVETGVKITVVAGEHNIEETEHTEQNRSVIRIIPHHNYNAAINKYNHDIALLELDEPLVLNSYVTPICIADKEYTNIFLKFGSGYVSGWGRVFHKGYSALVLQYLRVPLVDRATCLRSTKFRIYNNMFCAGFHEGGRDSCQGDSGGPHVTEVEGTSFLTGIISWGEECAMKGKYGIYTKVSEYVNWIKEKTKLT

In this data set the target is Factor X (FX), P00742.
Chain of Factor X (FX), P00742 (P00742 whole entry, looked up): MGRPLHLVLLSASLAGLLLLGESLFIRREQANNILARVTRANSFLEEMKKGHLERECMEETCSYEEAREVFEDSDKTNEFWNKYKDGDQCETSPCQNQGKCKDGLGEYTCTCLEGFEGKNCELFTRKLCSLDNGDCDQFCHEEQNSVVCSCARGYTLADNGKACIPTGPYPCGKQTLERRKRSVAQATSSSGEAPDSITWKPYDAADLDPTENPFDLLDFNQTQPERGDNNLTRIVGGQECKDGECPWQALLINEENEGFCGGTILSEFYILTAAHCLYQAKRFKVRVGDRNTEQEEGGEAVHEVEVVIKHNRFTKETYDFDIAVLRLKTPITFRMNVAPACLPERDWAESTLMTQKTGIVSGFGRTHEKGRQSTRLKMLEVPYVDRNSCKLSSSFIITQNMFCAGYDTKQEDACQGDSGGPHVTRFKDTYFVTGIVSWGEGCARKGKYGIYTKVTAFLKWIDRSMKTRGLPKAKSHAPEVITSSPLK
Consider B1, for which the “% of WT kcat/KM” value stood at 687%; the KM (in general, the concentration of substrate that gives half-maximal velocity) turned out to be 0.0328 µM; the kcat (s^-1) of FX activation by FIXa variant in the Xase complex (FVIIIa, PC/PS vesicles, Ca2+), fluorogenic FXa read-out was 8.8 s⁻¹; the kcat/KM for FX activation (Xase: FVIIIa, PC/PS vesicles, Ca2+) was 3.2e+08 M⁻¹ s⁻¹.

On to B2, for which the “% of WT kcat/KM” value was 439%; the Michaelis-Menten constant (KM) worked out at 0.0401 µM; the kcat (s^-1) of FX activation by FIXa variant in the Xase complex (FVIIIa, PC/PS vesicles, Ca2+), fluorogenic FXa read-out was determined as 6.1 s⁻¹; the kcat/KM for FX activation (Xase: FVIIIa, PC/PS vesicles, Ca2+) turned out to be 2e+08 M⁻¹ s⁻¹.

Take B3: the “% of WT kcat/KM” value amounted to 668%; the KM was found to be 0.0381 µM; the kcat (s^-1) of FX activation by FIXa variant in the Xase complex (FVIIIa, PC/PS vesicles, Ca2+), fluorogenic FXa read-out was determined as 8.1 s⁻¹; the kcat/KM for FX activation (Xase: FVIIIa, PC/PS vesicles, Ca2+) was found to be 3.1e+08 M⁻¹ s⁻¹.

B4: the “% of WT kcat/KM” value was 1009%; the KM is 0.0177 µM; the kcat (s^-1) of FX activation by FIXa variant in the Xase complex (FVIIIa, PC/PS vesicles, Ca2+), fluorogenic FXa read-out amounted to 7.3 s⁻¹; the kcat/KM for FX activation (Xase: FVIIIa, PC/PS vesicles, Ca2+) worked out at 4.7e+08 M⁻¹ s⁻¹.

For the protein B5, the “% of WT kcat/KM” value was 350%; the Michaelis-Menten constant (KM) was 0.0606 µM; the kcat (s^-1) of FX activation by FIXa variant in the Xase complex (FVIIIa, PC/PS vesicles, Ca2+), fluorogenic FXa read-out stood at 9 s⁻¹; the kcat/KM for FX activation (Xase: FVIIIa, PC/PS vesicles, Ca2+) stood at 1.6e+08 M⁻¹ s⁻¹.

For the protein B6, the “% of WT kcat/KM” value stood at 84%; the KM came out at 0.105 µM; the kcat (s^-1) of FX activation by FIXa variant in the Xase complex (FVIIIa, PC/PS vesicles, Ca2+), fluorogenic FXa read-out is 3.7 s⁻¹; the kcat/KM for FX activation (Xase: FVIIIa, PC/PS vesicles, Ca2+) is 3.9e+07 M⁻¹ s⁻¹.

Consider B7, for which the “% of WT kcat/KM” value amounted to 279%; the KM amounted to 0.0805 µM; the kcat (s^-1) of FX activation by FIXa variant in the Xase complex (FVIIIa, PC/PS vesicles, Ca2+), fluorogenic FXa read-out worked out at 9.5 s⁻¹; the kcat/KM for FX activation (Xase: FVIIIa, PC/PS vesicles, Ca2+) worked out at 1.3e+08 M⁻¹ s⁻¹.

In the case of B8, the “% of WT kcat/KM” value is 276%; the KM turned out to be 0.0605 µM; the kcat (s^-1) of FX activation by FIXa variant in the Xase complex (FVIIIa, PC/PS vesicles, Ca2+), fluorogenic FXa read-out came out at 7.5 s⁻¹; the kcat/KM for FX activation (Xase: FVIIIa, PC/PS vesicles, Ca2+) was 1.3e+08 M⁻¹ s⁻¹.
